Source: publication PMC6753162, “The interactome of 2-Cys peroxiredoxins in Plasmodium falciparum” (Scientific Reports, 2019)

B1: PfPrx1m wild type (enzyme, P. falciparum)
chain: SLVTKKAYNFTAQGLNKNNEIINVDLSSFIGQKYCCLLFYPLNYTFVCPTEIIEFNKHIKDFENKNVELLGISVDSVYSHLAWKNMPIEKGGIGNVEFTLVSDINKDISKNYNVLYDNSFALRGLFIIDKNGCVRHQTVNDLPIGRNVQEVLRTIDSIIHVDTSGEVCPINWKKGQKAFKPTTESLIDYMNNANKNV
notes: PfPrx1m (thioredoxin peroxidase 2), Plasmodium falciparum, mitochondrial; peroxidatic C67, resolving C187, further C54, C55, C152; also called PfPrx1m wt; thioredoxin peroxidase 2; source: E. coli M15 (pQE30), purified (Ni-NTA); not shown: His6, N-terminal, kept; copies: 10
B2: PfPrx1a wild type (enzyme, P. falciparum, UniProt Q8IL80 1-195, looked up)
chain: MASYVGREAPYFKAEAVFADNTFGEVNLHDFIGKKYVLLYFYPLDFTFVCPSEIIALDKALDAFKERNVELIGCSVDSKYTHLAWKKTPLTKGGIGNIQHTLISDITKSISRSYNVLFGDSVSLRAFVLIDKQGVVQHLLVNNLAIGRSVEEVLRIIDAVQHHEQHGDVCPANWKKGKVAMKPSEEGVSEYLSKL
notes: PfPrx1a (thioredoxin peroxidase 1), Plasmodium falciparum; peroxidatic C50, resolving C170, further C74; also called PfPrx1a wt; thioredoxin peroxidase 1; source: E. coli M15 (pQE30), purified (Ni-NTA); not shown: His6, N-terminal, kept; copies: 10

Assays:
[1] = target: the molecule itself; experiment: not stated; 6xHis-tagged Prx reduced with DTT, in purification buffer and in coupling buffer; method not given
[2] = target: T1, recombinant PfSAHH wt (P. falciparum, UniProt P50250 1-479); experiment: pull-down; 2 mg reduced PfPrx1a wt on CNBr-activated Sepharose 4B; 8 mg purified recombinant PfLDH wt or PfSAHH wt (not pre-reduced); extensive washing; eluted with 10 mM DTT; silver-stained 12% SDS-PAGE; conditions: both partners purified
T1 construct: S-adenosyl-L-homocysteine hydrolase, Plasmodium falciparum, wild type; not pre-reduced in the assay; also called S-adenosyl-L-homocysteine hydrolase; source: recombinant, purified (produced as previously described)
T1 sequence (P50250 whole entry): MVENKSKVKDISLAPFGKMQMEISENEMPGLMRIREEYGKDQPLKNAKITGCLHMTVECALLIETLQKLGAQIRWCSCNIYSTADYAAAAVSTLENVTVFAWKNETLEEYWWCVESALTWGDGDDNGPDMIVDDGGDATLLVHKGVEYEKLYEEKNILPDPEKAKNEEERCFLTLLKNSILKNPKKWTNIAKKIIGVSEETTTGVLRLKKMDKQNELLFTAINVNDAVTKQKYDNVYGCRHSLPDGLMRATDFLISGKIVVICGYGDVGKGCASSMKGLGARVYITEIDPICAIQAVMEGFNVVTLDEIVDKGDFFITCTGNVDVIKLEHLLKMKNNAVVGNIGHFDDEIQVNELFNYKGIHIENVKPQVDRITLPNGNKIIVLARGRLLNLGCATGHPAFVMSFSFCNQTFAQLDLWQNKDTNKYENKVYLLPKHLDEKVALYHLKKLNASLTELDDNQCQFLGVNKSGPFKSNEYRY

| Binder | stoichiometry N [1] | binding result [2] |
| --- | --- | --- |
| B1 | 10 | – |
| B2 | 10 | binds |
